Assay results from the supplement of paper PMC11246515.
± gives the standard deviation of the averaged measurements.

Experiment: total protein half-life in vivo (active degradation + dilution); higher = more stable protein
[1] = E. coli NCM3722 delta-clpP delta-lon delta-hslV, growth: N-lim chemostat, doubling time 6 h
[2] = E. coli NCM3722 delta-clpP, growth: N-lim chemostat, doubling time 6 h
[3] = E. coli NCM3722 delta-hslV, growth: N-lim chemostat, doubling time 6 h
[4] = E. coli NCM3722 delta-lon, growth: N-lim chemostat, doubling time 6 h
[5] = E. coli NCM3722 delta-smpB, growth: N-lim chemostat, doubling time 6 h
[6] = wild type E. coli NCM3722, growth: C-lim chemostat, doubling time 3 h
[7] = wild type E. coli NCM3722, growth: C-lim chemostat, doubling time 6 h
[8] = wild type E. coli NCM3722, growth: C-lim chemostat, doubling time 12 h
[9] = wild type E. coli NCM3722, growth: N-lim chemostat, doubling time 6 h
[10] = wild type E. coli NCM3722, growth: N-lim chemostat, doubling time 12 h
[11] = wild type E. coli NCM3722, growth: P-lim chemostat, doubling time 12 h
[12] = wild type E. coli NCM3722, growth: P-lim chemostat, doubling time 6 h

MSNNALQTIINARLPGEEGLWQIHLQDGKISAIDAQSGVMPITENSLDAEQGLVIPPFVEPHIHLDTTQTAGQPNWNQSGTLFEGIERWAERKALLTHDDVKQRAWQTLKWQIANGIQHVRTHVDVSDATLTALKAMLEVKQEVAPWIDLQIVAFPQEGILSYPNGEALLEEALRLGADVVGAIPHFEFTREYGVESLHKTFALAQKYDRLIDVHCDEIDDEQSRFVETVAALAHHEGMGARVTASHTTAMHSYNGAYTSRLFRLLKMSGINFVANPLVNIHLQGRFDTYPKRRGITRVKEMLESGINVCFGHDDVFDPWYPLGTANMLQVLHMGLHVCQLMGYGQINDGLNLITHHSARTLNLQDYGIAAGNSANLIILPAENGFDALRRQVPVRYSVRGGKVIASTQPAQTTVYLEQPEAIDYKR
total protein half-life in vivo [1]: 6.27 ± 0.14 h
total protein half-life in vivo [2]: 5.838 ± 0.02 h
total protein half-life in vivo [3]: 5.57 ± 0.45 h
total protein half-life in vivo [4]: 6.13 ± 0.073 h
total protein half-life in vivo [5]: 5.64 ± 0.32 h
total protein half-life in vivo [6]: 2.9 ± 0.17 h
total protein half-life in vivo [7]: 5.8 ± 0.1 h
total protein half-life in vivo [8]: 14.3 ± 0.34 h
total protein half-life in vivo [9]: 5.43 ± 0.29 h
total protein half-life in vivo [10]: 12.3 ± 1.4 h
total protein half-life in vivo [11]: 12.7 ± 0.35 h

MNPVPAQREYFLDSIRAWLMLLGIPFHISLIYSSHTWHVNSAESSLWLTLFNDFIHSFRMQVFFVISGYFSYMLFLRYPLKKWWKVRVERVGIPMLTAIPLLTLPQFIMLQYVKGKAESWPGLSLYDKYNTLAWELISHLWFLLVLVVMTTLCVWIFKRIRNNLENSDKTNKKFSMVKLSVIFLCLGIGYAVIRRTIFIVYPPILSNGMFNFIVMQTLFYLPFFILGALAFIFPHLKALFTTPSRGCTLAAALAFVAYLLNQRYGSGDAWMYETESVITMVLGLWMVNVVFSFGHRLLNFQSARVTYFVNASLFIYLVHHPLTLFFGAYITPHITSNWLGFLCGLIFVVGIAIILYEIHLRIPLLKFLFSGKPVVKRENDKAPAR
total protein half-life in vivo [1]: > 8 h
total protein half-life in vivo [2]: 5.18 h
total protein half-life in vivo [5]: 6.23 h
total protein half-life in vivo [10]: 9.69 h
total protein half-life in vivo [12]: 7.05 h
total protein half-life in vivo [11]: > 16 h

MNIDTREITLEPADNARLLSLCGPFDDNIKQLERRLGIEINRRDNHFKLTGRPICVTAAADILRSLYVDTAPMRGQIQDIEPEQIHLAIKEARVLEQSAESVPEYGKAVNIKTKRGVIKPRTPNQAQYIANILDHDITFGVGPAGTGKTYLAVAAAVDALERQEIRRILLTRPAVEAGEKLGFLPGDLSQKVDPYLRPLYDALFEMLGFEKVEKLIERNVIEVAPLAYMRGRTLNDAFIILDESQNTTIEQMKMFLTRIGFNSKAVITGDVTQIDLPRNTKSGLRHAIEVLADVEEISFNFFHSEDVVRHPVVARIVNAYEAWEEAEQKRKAALAAERKREEQEQK [P0A9K3]
total protein half-life in vivo [1]: 5.2 ± 0.69 h
total protein half-life in vivo [2]: 4.25 ± 0.14 h
total protein half-life in vivo [3]: 2.95 ± 0.066 h
total protein half-life in vivo [4]: 4.1 ± 0.2 h
total protein half-life in vivo [5]: 3.167 ± 0.017 h
total protein half-life in vivo [6]: 2.77 ± 0.3 h
total protein half-life in vivo [7]: 4.809 ± 0.025 h
total protein half-life in vivo [8]: 7.67 ± 0.34 h
total protein half-life in vivo [9]: 3.15 ± 0.17 h
total protein half-life in vivo [10]: 4.373 ± 0.043 h
total protein half-life in vivo [12]: 4.37 ± 0.17 h
total protein half-life in vivo [11]: 7.78 ± 0.12 h

MERVYRTDLKLLRYFLAVAEELHFGRAAARLNMSQPPLSIHIKELENQLGTQLFIRHSRSVVLTHAGKILMEESRRLLVNANNVLARIEQIGRGEAGRIELGVVGTAMWGRMRPVMRRFLRENPNVDVLFREKMPAMQMALLERRELDAGIWRMATEPPTGFTSLRLHESAFLVAMPEEHHLSSFSTVPLEALRDEYFVTMPPVYTDWDFLQRVCQQVGFSPVVIREVNEPQTVLAMVSMGIGITLIADSYAQMNWPGVIFRPLKQRIPADLYIVYETQQVTPAMVKLLAALTQ
total protein half-life in vivo [2]: 3.26 ± 0.21 h
total protein half-life in vivo [3]: 3.03 h
total protein half-life in vivo [9]: 3.31 h
total protein half-life in vivo [10]: 5.46 h

MALNTPQITPTKKITVRAIGEELPRGDYQRCPQCDMLFSLPEINSHQSAYCPRCQAKIRDGRDWSLTRLAAMAFTMLLLMPFAWGEPLLHIWLLGIRIDANVMQGIWQMTKQGDAITGSMVFFCVIGAPLILVTSIAYLWFGNRLGMNLRPVLLMLERLKEWVMLDIYLVGIGVASIKVQDYAHIQAGVGLFSFVALVILTTVTLSHLNVEELWERFYPQRPATRRDEKLRVCLGCHFTGYPDQRGRCPRCHIPLRLRRRHSLQKCWAALLASIVLLLPANLLPISIIYLNGGRQEDTILSGIMSLASSNIAVAGIVFIASILVPFTKVIVMFTLLLSIHFKCQQGLRTRILLLRMVTWIGRWSMLDLFVISLTMSLINRDQILAFTMGPAAFYFGAAVILTILAVEWLDSRLLWDAHESGNARFDD [P0AD03]
total protein half-life in vivo [2]: 3.28 h
total protein half-life in vivo [4]: 4.34 h
total protein half-life in vivo [5]: 4.47 h
total protein half-life in vivo [9]: 4.43 h
total protein half-life in vivo [12]: 3.99 h
total protein half-life in vivo [11]: 6.67 ± 0.85 h

MNMMRIFYIGLSGVGMMFSSMASGNDAGGLQSPACGVVCDPYICVNSDGISPELTRKYLGEKAAENLQSLQGYDPSEFTFANGVFCDVKEKLCRDDRYFGVDGKRSGKINQTTTKMLFMCRE
total protein half-life in vivo [1]: 5.09 ± 1.6 h
total protein half-life in vivo [2]: 5.4 h
total protein half-life in vivo [3]: 6.01 ± 0.28 h
total protein half-life in vivo [4]: 5.64 h
total protein half-life in vivo [6]: 2.85 ± 0.51 h
total protein half-life in vivo [7]: 5.52 ± 0.4 h
total protein half-life in vivo [9]: 4.42 ± 1.2 h
total protein half-life in vivo [10]: > 16 h
total protein half-life in vivo [12]: 4.78 ± 0.93 h
